# Test results as given in the RNAGym collection of RNA variant scans (doi:10.1021/acssynbio.7b00057).
# B1: Pistol ribozyme (parent)
# chain: GGGUCGUUGUUCCAUAAUCGCGUGGAUAUGGCACGCAAGUUUCUACCGGGCACCGUAAAUGUCCGACUGGAGCCGUUCGGGCGGCUAUAAACAGACCUCAGGCCCGAAGCGUGGCGGCACCUGCCGCCGGUGGUAAAAAAGAUCGGAAGAGCACACGUCU
# Variants of: B1
# Experiment: aptazyme ON/OFF ratio, guanine; higher = stronger switching; co-transcriptional cleavage with and without guanine
row,Variant,aptazyme ON/OFF ratio
1,GGGUCGUUGUAUAAUAAUCGCGUGGAUAUGGCACGCAAGUUUCUACCGGGCACCGUAAAUGUCCGACUGGAGCCGUUCGGGCGGCUAUAAACAGACCUCAGGCCCGAAGCGUGGCGGCACCUGCCGCCGGUGGUAAAAAAGAUCGGAAGAGCACACGUCU [U11A C12U C13A],1.36
2,GGGUCGUUGUAUUAUAAUCGCGUGGAUAUGGCACGCAAGUUUCUACCGGGCACCGUAAAUGUCCGACUGGAGCCGUUCGGGCGGCUAUAAACAGACCUCAGGCCCGAAGCGUGGCGGCACCUGCCGCCGGUGGUAAAAAAGAUCGGAAGAGCACACGUCU [U11A C12U C13U],1.45
3,GGGUCGUUGUAUGAUAAUCGCGUGGAUAUGGCACGCAAGUUUCUACCGGGCACCGUAAAUGUCCGACUGGAGCCGUUCGGGCGGCUAUAAACAGACCUCAGGCCCGAAGCGUGGCGGCACCUGCCGCCGGUGGUAAAAAAGAUCGGAAGAGCACACGUCU [U11A C12U C13G],1.37
4,GGGUCGUUGUCCAAUAAUCGCGUGGAUAUGGCACGCAAGUUUCUACCGGGCACCGUAAAUGUCCGACUGGAGCCGUUCGGGCGGCUAUAAACAGACCUCAGGCCCGAAGCGUGGCGGCACCUGCCGCCGGUGGUAAAAAAGAUCGGAAGAGCACACGUCU [U11C C13A],1.2
5,GGGUCGUUGUCCGAUAAUCGCGUGGAUAUGGCACGCAAGUUUCUACCGGGCACCGUAAAUGUCCGACUGGAGCCGUUCGGGCGGCUAUAAACAGACCUCAGGCCCGAAGCGUGGCGGCACCUGCCGCCGGUGGUAAAAAAGAUCGGAAGAGCACACGUCU [U11C C13G],1.07
6,GGGUCGUUGUCCUAUAAUCGCGUGGAUAUGGCACGCAAGUUUCUACCGGGCACCGUAAAUGUCCGACUGGAGCCGUUCGGGCGGCUAUAAACAGACCUCAGGCCCGAAGCGUGGCGGCACCUGCCGCCGGUGGUAAAAAAGAUCGGAAGAGCACACGUCU [U11C C13U],1.24
7,GGGUCGUUGUAUCAUAAUCGCGUGGAUAUGGCACGCAAGUUUCUACCGGGCACCGUAAAUGUCCGACUGGAGCCGUUCGGGCGGCUAUAAACAGACCUCAGGCCCGAAGCGUGGCGGCACCUGCCGCCGGUGGUAAAAAAGAUCGGAAGAGCACACGUCU [U11A C12U],1.64
8,GGGUCGUUGUAGCAUAAUCGCGUGGAUAUGGCACGCAAGUUUCUACCGGGCACCGUAAAUGUCCGACUGGAGCCGUUCGGGCGGCUAUAAACAGACCUCAGGCCCGAAGCGUGGCGGCACCUGCCGCCGGUGGUAAAAAAGAUCGGAAGAGCACACGUCU [U11A C12G],1.28
9,GGGUCGUUGUAACAUAAUCGCGUGGAUAUGGCACGCAAGUUUCUACCGGGCACCGUAAAUGUCCGACUGGAGCCGUUCGGGCGGCUAUAAACAGACCUCAGGCCCGAAGCGUGGCGGCACCUGCCGCCGGUGGUAAAAAAGAUCGGAAGAGCACACGUCU [U11A C12A],2.18
10,GGGUCGUUGUCGUAUAAUCGCGUGGAUAUGGCACGCAAGUUUCUACCGGGCACCGUAAAUGUCCGACUGGAGCCGUUCGGGCGGCUAUAAACAGACCUCAGGCCCGAAGCGUGGCGGCACCUGCCGCCGGUGGUAAAAAAGAUCGGAAGAGCACACGUCU [U11C C12G C13U],1.33
11,GGGUCGUUGUCGGAUAAUCGCGUGGAUAUGGCACGCAAGUUUCUACCGGGCACCGUAAAUGUCCGACUGGAGCCGUUCGGGCGGCUAUAAACAGACCUCAGGCCCGAAGCGUGGCGGCACCUGCCGCCGGUGGUAAAAAAGAUCGGAAGAGCACACGUCU [U11C C12G C13G],1.49
12,GGGUCGUUGUCGAAUAAUCGCGUGGAUAUGGCACGCAAGUUUCUACCGGGCACCGUAAAUGUCCGACUGGAGCCGUUCGGGCGGCUAUAAACAGACCUCAGGCCCGAAGCGUGGCGGCACCUGCCGCCGGUGGUAAAAAAGAUCGGAAGAGCACACGUCU [U11C C12G C13A],1.46
13,GGGUCGUUGUAAAAUAAUCGCGUGGAUAUGGCACGCAAGUUUCUACCGGGCACCGUAAAUGUCCGACUGGAGCCGUUCGGGCGGCUAUAAACAGACCUCAGGCCCGAAGCGUGGCGGCACCUGCCGCCGGUGGUAAAAAAGAUCGGAAGAGCACACGUCU [U11A C12A C13A],1.59
14,GGGUCGUUGUAAGAUAAUCGCGUGGAUAUGGCACGCAAGUUUCUACCGGGCACCGUAAAUGUCCGACUGGAGCCGUUCGGGCGGCUAUAAACAGACCUCAGGCCCGAAGCGUGGCGGCACCUGCCGCCGGUGGUAAAAAAGAUCGGAAGAGCACACGUCU [U11A C12A C13G],1.53
15,GGGUCGUUGUAAUAUAAUCGCGUGGAUAUGGCACGCAAGUUUCUACCGGGCACCGUAAAUGUCCGACUGGAGCCGUUCGGGCGGCUAUAAACAGACCUCAGGCCCGAAGCGUGGCGGCACCUGCCGCCGGUGGUAAAAAAGAUCGGAAGAGCACACGUCU [U11A C12A C13U],1.47
16,GGGUCGUUGUACGAUAAUCGCGUGGAUAUGGCACGCAAGUUUCUACCGGGCACCGUAAAUGUCCGACUGGAGCCGUUCGGGCGGCUAUAAACAGACCUCAGGCCCGAAGCGUGGCGGCACCUGCCGCCGGUGGUAAAAAAGAUCGGAAGAGCACACGUCU [U11A C13G],1.12
17,GGGUCGUUGUACUAUAAUCGCGUGGAUAUGGCACGCAAGUUUCUACCGGGCACCGUAAAUGUCCGACUGGAGCCGUUCGGGCGGCUAUAAACAGACCUCAGGCCCGAAGCGUGGCGGCACCUGCCGCCGGUGGUAAAAAAGAUCGGAAGAGCACACGUCU [U11A C13U],1.29
18,GGGUCGUUGUACAAUAAUCGCGUGGAUAUGGCACGCAAGUUUCUACCGGGCACCGUAAAUGUCCGACUGGAGCCGUUCGGGCGGCUAUAAACAGACCUCAGGCCCGAAGCGUGGCGGCACCUGCCGCCGGUGGUAAAAAAGAUCGGAAGAGCACACGUCU [U11A C13A],1.26

row,Variant,aptazyme ON/OFF ratio
1,GGGUCGUUGUAGUAUAAUCGCGUGGAUAUGGCACGCAAGUUUCUACCGGGCACCGUAAAUGUCCGACUGGAGCCGUUCGGGCGGCUAUAAACAGACCUCAGGCCCGAAGCGUGGCGGCACCUGCCGCCGGUGGUAAAAAAGAUCGGAAGAGCACACGUCU [U11A C12G C13U],1.42
2,GGGUCGUUGUAGAAUAAUCGCGUGGAUAUGGCACGCAAGUUUCUACCGGGCACCGUAAAUGUCCGACUGGAGCCGUUCGGGCGGCUAUAAACAGACCUCAGGCCCGAAGCGUGGCGGCACCUGCCGCCGGUGGUAAAAAAGAUCGGAAGAGCACACGUCU [U11A C12G C13A],1.11
3,GGGUCGUUGUAGGAUAAUCGCGUGGAUAUGGCACGCAAGUUUCUACCGGGCACCGUAAAUGUCCGACUGGAGCCGUUCGGGCGGCUAUAAACAGACCUCAGGCCCGAAGCGUGGCGGCACCUGCCGCCGGUGGUAAAAAAGAUCGGAAGAGCACACGUCU [U11A C12G C13G],1.18
4,GGGUCGUUGUGACAUAAUCGCGUGGAUAUGGCACGCAAGUUUCUACCGGGCACCGUAAAUGUCCGACUGGAGCCGUUCGGGCGGCUAUAAACAGACCUCAGGCCCGAAGCGUGGCGGCACCUGCCGCCGGUGGUAAAAAAGAUCGGAAGAGCACACGUCU [U11G C12A],1.11
5,GGGUCGUUGUCACAUAAUCGCGUGGAUAUGGCACGCAAGUUUCUACCGGGCACCGUAAAUGUCCGACUGGAGCCGUUCGGGCGGCUAUAAACAGACCUCAGGCCCGAAGCGUGGCGGCACCUGCCGCCGGUGGUAAAAAAGAUCGGAAGAGCACACGUCU [U11C C12A],1.43
6,GGGUCGUUGUCUCAUAAUCGCGUGGAUAUGGCACGCAAGUUUCUACCGGGCACCGUAAAUGUCCGACUGGAGCCGUUCGGGCGGCUAUAAACAGACCUCAGGCCCGAAGCGUGGCGGCACCUGCCGCCGGUGGUAAAAAAGAUCGGAAGAGCACACGUCU [U11C C12U],1.57
7,GGGUCGUUGUCGCAUAAUCGCGUGGAUAUGGCACGCAAGUUUCUACCGGGCACCGUAAAUGUCCGACUGGAGCCGUUCGGGCGGCUAUAAACAGACCUCAGGCCCGAAGCGUGGCGGCACCUGCCGCCGGUGGUAAAAAAGAUCGGAAGAGCACACGUCU [U11C C12G],1.55
8,GGGUCGUUGUGAUAUAAUCGCGUGGAUAUGGCACGCAAGUUUCUACCGGGCACCGUAAAUGUCCGACUGGAGCCGUUCGGGCGGCUAUAAACAGACCUCAGGCCCGAAGCGUGGCGGCACCUGCCGCCGGUGGUAAAAAAGAUCGGAAGAGCACACGUCU [U11G C12A C13U],1.24
9,GGGUCGUUGUGAGAUAAUCGCGUGGAUAUGGCACGCAAGUUUCUACCGGGCACCGUAAAUGUCCGACUGGAGCCGUUCGGGCGGCUAUAAACAGACCUCAGGCCCGAAGCGUGGCGGCACCUGCCGCCGGUGGUAAAAAAGAUCGGAAGAGCACACGUCU [U11G C12A C13G],1.22
10,GGGUCGUUGUGAAAUAAUCGCGUGGAUAUGGCACGCAAGUUUCUACCGGGCACCGUAAAUGUCCGACUGGAGCCGUUCGGGCGGCUAUAAACAGACCUCAGGCCCGAAGCGUGGCGGCACCUGCCGCCGGUGGUAAAAAAGAUCGGAAGAGCACACGUCU [U11G C12A C13A],1.14
11,GGGUCGUUGUCAUAUAAUCGCGUGGAUAUGGCACGCAAGUUUCUACCGGGCACCGUAAAUGUCCGACUGGAGCCGUUCGGGCGGCUAUAAACAGACCUCAGGCCCGAAGCGUGGCGGCACCUGCCGCCGGUGGUAAAAAAGAUCGGAAGAGCACACGUCU [U11C C12A C13U],1.31
12,GGGUCGUUGUCAAAUAAUCGCGUGGAUAUGGCACGCAAGUUUCUACCGGGCACCGUAAAUGUCCGACUGGAGCCGUUCGGGCGGCUAUAAACAGACCUCAGGCCCGAAGCGUGGCGGCACCUGCCGCCGGUGGUAAAAAAGAUCGGAAGAGCACACGUCU [U11C C12A C13A],1.53
13,GGGUCGUUGUCAGAUAAUCGCGUGGAUAUGGCACGCAAGUUUCUACCGGGCACCGUAAAUGUCCGACUGGAGCCGUUCGGGCGGCUAUAAACAGACCUCAGGCCCGAAGCGUGGCGGCACCUGCCGCCGGUGGUAAAAAAGAUCGGAAGAGCACACGUCU [U11C C12A C13G],1.43
14,GGGUCGUUGUGCCAUAAUCGCGUGGAUAUGGCACGCAAGUUUCUACCGGGCACCGUAAAUGUCCGACUGGAGCCGUUCGGGCGGCUAUAAACAGACCUCAGGCCCGAAGCGUGGCGGCACCUGCCGCCGGUGGUAAAAAAGAUCGGAAGAGCACACGUCU [U11G],1.22
15,GGGUCGUUGUCCCAUAAUCGCGUGGAUAUGGCACGCAAGUUUCUACCGGGCACCGUAAAUGUCCGACUGGAGCCGUUCGGGCGGCUAUAAACAGACCUCAGGCCCGAAGCGUGGCGGCACCUGCCGCCGGUGGUAAAAAAGAUCGGAAGAGCACACGUCU [U11C],1.53
16,GGGUCGUUGUCUAAUAAUCGCGUGGAUAUGGCACGCAAGUUUCUACCGGGCACCGUAAAUGUCCGACUGGAGCCGUUCGGGCGGCUAUAAACAGACCUCAGGCCCGAAGCGUGGCGGCACCUGCCGCCGGUGGUAAAAAAGAUCGGAAGAGCACACGUCU [U11C C12U C13A],1.4
17,GGGUCGUUGUCUUAUAAUCGCGUGGAUAUGGCACGCAAGUUUCUACCGGGCACCGUAAAUGUCCGACUGGAGCCGUUCGGGCGGCUAUAAACAGACCUCAGGCCCGAAGCGUGGCGGCACCUGCCGCCGGUGGUAAAAAAGAUCGGAAGAGCACACGUCU [U11C C12U C13U],1.52
18,GGGUCGUUGUCUGAUAAUCGCGUGGAUAUGGCACGCAAGUUUCUACCGGGCACCGUAAAUGUCCGACUGGAGCCGUUCGGGCGGCUAUAAACAGACCUCAGGCCCGAAGCGUGGCGGCACCUGCCGCCGGUGGUAAAAAAGAUCGGAAGAGCACACGUCU [U11C C12U C13G],1.43
